Measurements reported in the DeepSol protein solubility set.

test: soluble on expression in E. coli; label from the status in PepcDB or PDB records

Sequence	soluble on expression in E. coli
HMTMEQFLTSLDMIRSGCAPKFKLKTEDLDRLRVGDFNFPPSQDLMCYTKCVALMAGTVNKKGEFNAPKALAQLPHLVPPEMMEMSRKSVEACRDTHKQFKESCERVYQTAKCFSENADGQFMWP	soluble
MKKALSLLTVSALSIGMLSACGPKDSGKKEESKAKKDYDLLVWEDDKKGVGLEPAVKSFEEKYKVKVKVVEMQMTDQVKKLRLDGPAGTGPDVVTLPHDQIGNAVTEGLLSEVKADDAVKSKFTDSSIEAQTYNGKLYGLPKAIETPVFIYNKKLMPKAPETMDELFNFSKEFTKDGKYGFLALGDNFYFANAFMAGMGGYVFGEKDGKPNASDVGLNNSGAVQGAEYLQKWYKEKLFPKGIIGESGGPAADGLFNEGKAASIMNGPWAFQAMEKNGIDYGVAPMPKLPNGQPLKTFVGVKGWHVTSFSKQNDLATKFTEWVTNEENAKIRFEKTKEIPPVKAVMEDPIIKDNEAAKAVATQSENGIPMPNIPEMQEVWKPAGDALQLVVTDKEAPKAALDSAVKQIKGNIEANHSKQK	not soluble
STTTTTKKPHVLVIPFPQSGHMVPHLDLTHQILLRGATVTVLVTPKNSSYLDALRSLHSPEHFKTLILPFPSHPCIPSGVESLQQLPLEAIVHMFDALSRLHDPLVDFLSRQPPSDLPDAILGSSFLSPWINKVADAFSIKSISFLPINAHSISVMWAQEDRSFFNDLETATTESYGLVINSFYDLEPEFVETVKTRFLNHHRIWTVGPLLPFKAGVDRGGQSSIPPAKVSAWLDSCPEDNSVVYVGFGSQIRLTAEQTAALAAALEKSSVRFIWAVRDAAKKVNSSDNSVEEDVIPAGFEERVKEKGLVIRGWAPQTMILEHRAVGSYLTHLGWGSVLEGMVGGVMLLAWPMQADHFFNTTLIVDKLRAAVRVGENRDSVPDSDKLARILAESAREDLPERVTLMKLREKAMEAIKEGGSSYKNLDELVAEMCL	soluble
MSQHAFSPDENVHLSPKGWYRQASEKPGFIHDAAQAAAIEQLDRLWHELVDFKSKRNRFLGRSLRSPQVPRGLYFWGGVGRGKSFLMDAFYACVPYRRKRRIHFHHFMAETHRELRKFAGGKDPLLAYADQIAKATRLLCFDEFHVSDIADAMILGRLLSALLERGVVVVTTSNYAPDDLYPGGLQRQNFLPTIELIKRELDVLNVDGGHDYRLRELTREPLFMVPADAANEGKMEQLFRRVSTGAELAQKSITVLEREIAVKRMSPGVIWFDFMALCDGPRAQTDYLEIASEYHTVFLSGIPRLSAKQASIARRFTWLVDVFYDNRVKLIASADAPPEAIYTEGLQSGEFFRTASRLTEMQSKSYLELPHQSMTQSHDQPPPGVALLEHHHHHH	not soluble
NDTVLIAGAGHAGFQVAVSLRQAKYPGRIALINDEKHLPYQRPPLSKAYLKSGGDPNSLMFRPEKFFQDQAIELISDRMVSIDREGRKLLLASGTAIEYGHLVLATGARNRMLDVPNASLPDVLYLRTLDESEVLRQRMPDKKHVVVIGAGFIGLEFAATARAKGLEVDVVELAPRVMARVVTPEISSYFHDRHSGAGIRMHYGVRATEIAAEGDRVTGVVLSDGNTLPCDLVVVGVGVIPNVEIAAAAGLPTAAGIIVDQQLLTSDPHISAIGDCALFESVRFGETMRVESVQNATDQARCVAARLTGDAKPYDGYPWFWSDQGDDKLQIVGLTAGFDQVVIRGSVAERSFSAFCYKAGKLIGIESVNRAADHVFGRKILPLDKSVTPEQAADLSFDLKKAAA	soluble
GPVDPVKTFSEVLAAVEDRTISKELLDEKCRKILAFKYALIICKGISKELPAEEVVRQVNSREAERMSEDLWQASITILKNKKHFLPLSEGNRIACVNLDGAASNTFTQELGLTSKDCYSYAKGSNSTRTQELLSKLKGYDAVIVTVRHTQPDWAGTFLHRLTEQNHTAIVFFTSPYVADRIPAAMDKARAIVVAYENVKEAARMAAYKIRDRVVVSSGGGIPVVQEEEDTDPTANMMPPTELSSGLIPMPA	not soluble
MWKWEAENDAKGVVVIAHNILEHTGRYAYVITMLRRNGYHVIMGDLPGQGQTSRANKGQIENFQTYHESLLDWLKIANEYKIPTYVLGVGLGGLILLNLLEKVELPIEGMMLISPMLELQKNGKNRKDKLVSNIGKISKDTRFNVGVEPKDLTRNLEIVEETVNDGLMLKKATYHWYNTINETMKDTMAHIHDIQPMPTLLMYGTKDLIVDTRAIDEFKEKYQTPELYFKAWQGFYHEVHNEPERDEVMRYILTFLNNSVN	not soluble
SAGLGANSDVMVKLDDGHLNNSLRSPVQAGVYFRGHIKGGMRPGKKVLVMGIVDHNPKSFAISLTCGDSEDPPADVAIELKVVFTNQQVFRNSCISGESDEENLAFPYFPFVPDQPFRMEIFCQQPCFRVLVDGHHLFDFYHRIQTLSAIDSIKISGDLQITKLG	soluble
MSVIIVGGGMAGATLALAISRLSHGALPVHLIEATAPESHAHPGFDGRAIALAAGTCQQLARIGVWQSLADCATAITTVHVSDRGHAGFVTLAAEDYQLAALGQVVELHNVGQRLFALLRKAPGVMLHCPDRVANVARTQSHVEVTLESGEMLTGRVLIAADGTHSALATACGVDWQQEPYEQLAVIANVATSVAHEGRAFERFTQHGPLAMLPMSDGRCSLVWCHPLERREEVLSWSDEKFCRELQSAFGWRLGQITHAGKRSAYPLALTRAARPITHRTVLVGNAAQTLHPIAGQGFNLGMRDVMSLAETLTQAHERGEDIGDYGILCRYQQRRQSDREATIGVTDSLVHLFANRWAPLVVGRNIGLMTMELFTPARDVLAQRTLGWVARLEHHHHHH	soluble
MEELNKYKQEIKDNALKELDSTKKKINEEKKHWGDLPLTYMPISNGTMTREYAETEQFYSHVVNVKNILDSLFEEVENDIKRLDAIFCFNEYTVYGQEDIEQIKENIKNEYKTSVAHFSKLWEDIKAMSVLLRSCFNKTWDRHSEVTLLTVIQTLDESIKHRGGPNYDKNNDNFFLLRECGSALRECNTQIKMDEKNLIIRIINTKDLEGGFKKSLETLLNENESANFIKLLAEYLEGVNLNVDVQVLKENFFIFAQGIKQFYLNNVETLKD	not soluble
MGSDKIHHHHHHMIYDMSGIYLSSLTGIRNNSSSSSNSLDKEAFLRLLLQELEMQDPLEPMETKDMISQLSQLTSLEQITNLTSAVKDFVEAQTSVSPAQLASLIGKYVVVRNNTVNLVGGQSDSIIFNVDEDAHVVVQILDENGKLVRTEDLGTVQVGVHAWQWDGRDDNGISVEDGSYTYRVYKLTSSGLEEIGGMEGGVVEAVQIKDGKGFVLVNGSLYPVDSILEISQEGDA	not soluble
MKLRSVTYALFIAGLAAFSTSSLAAQSLRFGYETSQTDSQHIAAKKFNDLLQERTKGELKLKLFPDSTLGNAQAMISGVRGGTIDMEMSGSNNFAGLSPVMNLLDVPFLFRDTAHAHKTLDGKVGDDLKASLEGKGLKVLAYWENGWRDVTNSRAPVKTPADLKGLKIRTNNSPMNIAAFKVFGANPIPMPFAEVYTGLETRTIDAQEHPINVVWSAKFFEVQKFLSLTHHAYSPLLVVINKAKFDGLSPEFQQALVSSAQEAGNYQRKLVAEDQQKIIDGMKEAGVEVITDLDRKAFSDALGNQVRDMFVKDVPQGADLLKAVDEVQ	not soluble
MESVTRKSVLQLEERPGDSSSSSDEEINTIGNVPLDWYKDLSHIGYTRDGIKLLRRKRVGPLCPVYVKKGFYYLYDEKNDEEIALSRNDLKRLVSIVRLQNPSGATESGFVGEEIVFWTGTPRIEPIRNRNEPKRSFLPSRHEAAQVVKLVRSILRRKRIEELKEHKSEKEDLSIWEETSFEQVGRSHHYLPPPKTPLPGHEESYRPPPEFLLNEEEKSKRKENNELVPETYNFLRHVPLYTSLIREHFERCLELYCAPRMRVRRRKIDPEALLPKLPSPDTLRPFPDSQVASFGPHAGAIRAISLNSNGQWLACACQDGSVSIWEVATGICRIRIDFQEKLKEMLASFESLSQATESEMESMGQYEDLSILHVAWSPKENDFKLAVCIKHFVAVVNVAHILYPDEAQDSQSFGYSVVGEPSSNWKDWKDERGNLGRIAIIEHSRKVQHVHWHQRGDYFVVLTKNAFGSSLVVHQLSRKRTQSPFSKSAKGVITADFHPSKSLFFITTKHHVRIYDLAQAQLVNKLVTGISEISAMSVHPSGNHVLIGSVEGQLVWFDLDLSSRPYKRIRDHTYTVSSIAFHPTLPLFADASDDQTVAVFHATVYEDLLQNPLIVPLKVLKLPHNSKGTGVWSICWHPQLPWLFVSGIDEYVRLYADTS	soluble
MGSDKIHHHHHHMKILFGPVSSRRFGRSLGIDLSPSKKQCNFDCVYCELDPKKAQEKQDEIISIDKIISEVKAMLEKNVEFDFLTLTANGEPSLYPYLNELILSLRSIAKDKKLLILSNGTAVLDEDKFNALLKLDVVKFSLDSAVAKTFYRIDRALKNIDLEKMIEKMADFRARFNGDLIMEILVVKDLNDNEEEFEALNQALKKIMPLRVDLSTIDRPPAYAVKKVSEEKLLELSKLIDSTPVLLAKRHYEGEKLSFNEEELLKMLHLRSQSEIDIEVKFDEQSKTLLNQLIKEKKVKILDLAGVKFYKV	not soluble
MDVLVTAGGTSEPIDNVRSITNHSSGGLGKAIAESFLAAGHTVTYVTTKHALRPTQQLDLSIKEIETTVELATTLEQLFAEKQFDAIVHAMAVSDFTTETAQTEEQFIDSFAQQLSEQTLPKTKEALVTIVQNTLNQIADIPQTATKISSDTDRLLIFLKKNPKVIQMIRDKQPQTVLVGFKLLVNVSQEELVQVAQAALVKNRCDFVLANDLMNVHETEHKGLLINETGIVQEAYSKQGIGSMIVKNVEKKWREQQ	not soluble
MCILFIAIEQHPKYPLIICANRDEFHQRPTQAMHVWQESNILAGKDLQAGGTWLGLSSTGKFAALTNFRKLPLSEAPKKSRGDLVLQALADTKINMTAELAQQASQYHGFNLIYGSLKQLYCYDSVNNQSHQLSDGVHSICNGALDDIWPKMARGEKLLSETIRSQKNLSIEALFDLMTNDKQALPHLLPETGLDEEWEQLLSAIFIKSPTYGTRTTTIITQDVEGNVETYDRSYAPSGECITKQQFNLATVFDLEHHHHHH	not soluble
MMSSNQQPVVLGKLGSCHGIKGWLKITAYTDSVEGIFDYSPWLIKENGEWREVKVIQWRYQGKAVVAELEGVTTRERAQMLTNCEIGILPQQMNALPEDEFYWRDLIGCEVINTTGYNMGIVDQIVETGSNDVLLVKANAKDSFGKVERMVPFVPGQFILKVDVQGKQILVDWDPDFLEHHHHHH	soluble
MDKVLDSALLSSANKRKGILAIGAHPDDIELGCGASLARLAQKGIYIAAVVMTTGNSGTDGIIDRHEESRNALKILGCHQTIHLNFADTRAHLQLNDMISALEDIIKNQIPSDVEIMRVYTMHDADRHQDHLAVYQASMVACRTIPQILGYETPSTWLSFMPQVFESVKEEYFTVKLAALKKHKS	soluble
MEEIWLSCHALVFHTTPTQRLCVGWGELAVGRFVKMAAAPAPEMTPRLDVSKNATDPDSLTDHGFQYSRHRPVITDHKRFDRLVGFSIKQSNVELAAEAIKQAATVWCLTEKKSDKRDEDSVKFLATYLYKESLYWGKIDPRRALQRATAESWLGSQSFAPTSARTYKAVLHTAGRVLYPAEFPPANRYSNPRAKPVDPASVELIDELYGVAATLPAVHRLRLQLILDLTTQSGLRSAEVLDLRGSDVTARILDTGERIALVRVHR	not soluble
